Experimental data reported in patent CN112646041A.

Molecular target: 人CD64 ECD-his抗原(SINO BIOLOGICAL，货号:10256-H08H) (human) (UniProt P12314)
Experiment: ELISA, antibody coated at 67 to 0.0043 nM, CD64 ECD-his at 1 μg/mL

With hIgG1对照组(SIGMA，货号I4506) (antibody) the EC50 was 1.32 nM.
